In US20110052599A1:

Molecular target: TrkB receptor expressed in mouse oocytes (mouse) (UniProt P15209)
Assay: cell-based or functional assay

proportion of MII oocytes that developed into blastocyst-stage embryos: 5 fold
proportion of MII oocytes that developed into two-cell stage embryos: 2 fold
proportion of oocytes showing first polar body extrusion (MII-stage oocytes), 3 ng/ml BDNF with 5% FBS: > 2 fold
Substance: recombinant human BDNF (Pepro-Tech, Rocky Hill, N.J.) (from UniProt P23560 19-247) (ligand)
